# Data: publication PMC8173049 (2021)
# Target: HAdV-D26 capsid (replication-defective, E1-deleted vector particle with a GFP-luciferase fusion expression … (human adenovirus D26))
# Assay: SPR
binder,measurement,value
human lactoferrin (natural protein) GRRRSVQWCAVSQPEATKCFQWQRNMRKVRGPPVSCIKRDSPIQCIQAIAENRADAVTLDGGFIYEAGLAPYKLRPVAAEVYGTERQPRTHYYAVAVVKKGGSFQLNELQGLKSCHTGLRRTAGWNVPIGTLRPFLNWTGPPEPIEAAVARFFSASCVPGADKGQFPNLCRLCAGTGENKCAFSSQEPYFSYSGAFKCLRDGAGDVAFIRESTVFEDLSDEAERDEYELLCPDNTRKPVDKFKDCHLARVPSHAVVARSVNGKEDAIWNLLRQAQEKFGKDKSPKFQLFGSPSGQKDLLFKDSAIGFSRVPPRIDSGLYLGSGYFTAIQNLRKSEEEVAARRARVVWCAVGEQELRKCNQWSGLSEGSVTCSSASTTEDCIALVLKGEADAMSLDGGYVYTAGKCGLVPVLAENYKSQQSSDPDPNCVDRPVEGYLAVAVVRRSDTSLTWNSVKGKKSCHTAVDRTAGWNIPMGLLFNQTGSCKFDEYFSQSCAPGSDPRSNLCALCIGDEQGENKCVPNSNERYYGYTGAFRCLAENAGDVAFVKDVTVLQNTDGNNNEAWAKDLKLADFALLCLDGKRKPVTEARSCHLAMAPNHAVVSRMDKVERLKQVLLHQQAKFGRNGSDCPDKFCLFQSETKNLLFNDNTECLARLHGKTTYEKYLGPQYVAGITNLKKCSTSPLLEACEFLRK,Kd,2550 nM
